Consider one substance from patent publication US20240247055A1.

The target of this experiment is low-density lipoprotein (LDL) receptor-related protein 1 (LRP1) (human) (UniProt Q07954). The experiment can be described thus: cell-based or functional assay.
Chain of UniProt Q07954 (Q07954 20-4544): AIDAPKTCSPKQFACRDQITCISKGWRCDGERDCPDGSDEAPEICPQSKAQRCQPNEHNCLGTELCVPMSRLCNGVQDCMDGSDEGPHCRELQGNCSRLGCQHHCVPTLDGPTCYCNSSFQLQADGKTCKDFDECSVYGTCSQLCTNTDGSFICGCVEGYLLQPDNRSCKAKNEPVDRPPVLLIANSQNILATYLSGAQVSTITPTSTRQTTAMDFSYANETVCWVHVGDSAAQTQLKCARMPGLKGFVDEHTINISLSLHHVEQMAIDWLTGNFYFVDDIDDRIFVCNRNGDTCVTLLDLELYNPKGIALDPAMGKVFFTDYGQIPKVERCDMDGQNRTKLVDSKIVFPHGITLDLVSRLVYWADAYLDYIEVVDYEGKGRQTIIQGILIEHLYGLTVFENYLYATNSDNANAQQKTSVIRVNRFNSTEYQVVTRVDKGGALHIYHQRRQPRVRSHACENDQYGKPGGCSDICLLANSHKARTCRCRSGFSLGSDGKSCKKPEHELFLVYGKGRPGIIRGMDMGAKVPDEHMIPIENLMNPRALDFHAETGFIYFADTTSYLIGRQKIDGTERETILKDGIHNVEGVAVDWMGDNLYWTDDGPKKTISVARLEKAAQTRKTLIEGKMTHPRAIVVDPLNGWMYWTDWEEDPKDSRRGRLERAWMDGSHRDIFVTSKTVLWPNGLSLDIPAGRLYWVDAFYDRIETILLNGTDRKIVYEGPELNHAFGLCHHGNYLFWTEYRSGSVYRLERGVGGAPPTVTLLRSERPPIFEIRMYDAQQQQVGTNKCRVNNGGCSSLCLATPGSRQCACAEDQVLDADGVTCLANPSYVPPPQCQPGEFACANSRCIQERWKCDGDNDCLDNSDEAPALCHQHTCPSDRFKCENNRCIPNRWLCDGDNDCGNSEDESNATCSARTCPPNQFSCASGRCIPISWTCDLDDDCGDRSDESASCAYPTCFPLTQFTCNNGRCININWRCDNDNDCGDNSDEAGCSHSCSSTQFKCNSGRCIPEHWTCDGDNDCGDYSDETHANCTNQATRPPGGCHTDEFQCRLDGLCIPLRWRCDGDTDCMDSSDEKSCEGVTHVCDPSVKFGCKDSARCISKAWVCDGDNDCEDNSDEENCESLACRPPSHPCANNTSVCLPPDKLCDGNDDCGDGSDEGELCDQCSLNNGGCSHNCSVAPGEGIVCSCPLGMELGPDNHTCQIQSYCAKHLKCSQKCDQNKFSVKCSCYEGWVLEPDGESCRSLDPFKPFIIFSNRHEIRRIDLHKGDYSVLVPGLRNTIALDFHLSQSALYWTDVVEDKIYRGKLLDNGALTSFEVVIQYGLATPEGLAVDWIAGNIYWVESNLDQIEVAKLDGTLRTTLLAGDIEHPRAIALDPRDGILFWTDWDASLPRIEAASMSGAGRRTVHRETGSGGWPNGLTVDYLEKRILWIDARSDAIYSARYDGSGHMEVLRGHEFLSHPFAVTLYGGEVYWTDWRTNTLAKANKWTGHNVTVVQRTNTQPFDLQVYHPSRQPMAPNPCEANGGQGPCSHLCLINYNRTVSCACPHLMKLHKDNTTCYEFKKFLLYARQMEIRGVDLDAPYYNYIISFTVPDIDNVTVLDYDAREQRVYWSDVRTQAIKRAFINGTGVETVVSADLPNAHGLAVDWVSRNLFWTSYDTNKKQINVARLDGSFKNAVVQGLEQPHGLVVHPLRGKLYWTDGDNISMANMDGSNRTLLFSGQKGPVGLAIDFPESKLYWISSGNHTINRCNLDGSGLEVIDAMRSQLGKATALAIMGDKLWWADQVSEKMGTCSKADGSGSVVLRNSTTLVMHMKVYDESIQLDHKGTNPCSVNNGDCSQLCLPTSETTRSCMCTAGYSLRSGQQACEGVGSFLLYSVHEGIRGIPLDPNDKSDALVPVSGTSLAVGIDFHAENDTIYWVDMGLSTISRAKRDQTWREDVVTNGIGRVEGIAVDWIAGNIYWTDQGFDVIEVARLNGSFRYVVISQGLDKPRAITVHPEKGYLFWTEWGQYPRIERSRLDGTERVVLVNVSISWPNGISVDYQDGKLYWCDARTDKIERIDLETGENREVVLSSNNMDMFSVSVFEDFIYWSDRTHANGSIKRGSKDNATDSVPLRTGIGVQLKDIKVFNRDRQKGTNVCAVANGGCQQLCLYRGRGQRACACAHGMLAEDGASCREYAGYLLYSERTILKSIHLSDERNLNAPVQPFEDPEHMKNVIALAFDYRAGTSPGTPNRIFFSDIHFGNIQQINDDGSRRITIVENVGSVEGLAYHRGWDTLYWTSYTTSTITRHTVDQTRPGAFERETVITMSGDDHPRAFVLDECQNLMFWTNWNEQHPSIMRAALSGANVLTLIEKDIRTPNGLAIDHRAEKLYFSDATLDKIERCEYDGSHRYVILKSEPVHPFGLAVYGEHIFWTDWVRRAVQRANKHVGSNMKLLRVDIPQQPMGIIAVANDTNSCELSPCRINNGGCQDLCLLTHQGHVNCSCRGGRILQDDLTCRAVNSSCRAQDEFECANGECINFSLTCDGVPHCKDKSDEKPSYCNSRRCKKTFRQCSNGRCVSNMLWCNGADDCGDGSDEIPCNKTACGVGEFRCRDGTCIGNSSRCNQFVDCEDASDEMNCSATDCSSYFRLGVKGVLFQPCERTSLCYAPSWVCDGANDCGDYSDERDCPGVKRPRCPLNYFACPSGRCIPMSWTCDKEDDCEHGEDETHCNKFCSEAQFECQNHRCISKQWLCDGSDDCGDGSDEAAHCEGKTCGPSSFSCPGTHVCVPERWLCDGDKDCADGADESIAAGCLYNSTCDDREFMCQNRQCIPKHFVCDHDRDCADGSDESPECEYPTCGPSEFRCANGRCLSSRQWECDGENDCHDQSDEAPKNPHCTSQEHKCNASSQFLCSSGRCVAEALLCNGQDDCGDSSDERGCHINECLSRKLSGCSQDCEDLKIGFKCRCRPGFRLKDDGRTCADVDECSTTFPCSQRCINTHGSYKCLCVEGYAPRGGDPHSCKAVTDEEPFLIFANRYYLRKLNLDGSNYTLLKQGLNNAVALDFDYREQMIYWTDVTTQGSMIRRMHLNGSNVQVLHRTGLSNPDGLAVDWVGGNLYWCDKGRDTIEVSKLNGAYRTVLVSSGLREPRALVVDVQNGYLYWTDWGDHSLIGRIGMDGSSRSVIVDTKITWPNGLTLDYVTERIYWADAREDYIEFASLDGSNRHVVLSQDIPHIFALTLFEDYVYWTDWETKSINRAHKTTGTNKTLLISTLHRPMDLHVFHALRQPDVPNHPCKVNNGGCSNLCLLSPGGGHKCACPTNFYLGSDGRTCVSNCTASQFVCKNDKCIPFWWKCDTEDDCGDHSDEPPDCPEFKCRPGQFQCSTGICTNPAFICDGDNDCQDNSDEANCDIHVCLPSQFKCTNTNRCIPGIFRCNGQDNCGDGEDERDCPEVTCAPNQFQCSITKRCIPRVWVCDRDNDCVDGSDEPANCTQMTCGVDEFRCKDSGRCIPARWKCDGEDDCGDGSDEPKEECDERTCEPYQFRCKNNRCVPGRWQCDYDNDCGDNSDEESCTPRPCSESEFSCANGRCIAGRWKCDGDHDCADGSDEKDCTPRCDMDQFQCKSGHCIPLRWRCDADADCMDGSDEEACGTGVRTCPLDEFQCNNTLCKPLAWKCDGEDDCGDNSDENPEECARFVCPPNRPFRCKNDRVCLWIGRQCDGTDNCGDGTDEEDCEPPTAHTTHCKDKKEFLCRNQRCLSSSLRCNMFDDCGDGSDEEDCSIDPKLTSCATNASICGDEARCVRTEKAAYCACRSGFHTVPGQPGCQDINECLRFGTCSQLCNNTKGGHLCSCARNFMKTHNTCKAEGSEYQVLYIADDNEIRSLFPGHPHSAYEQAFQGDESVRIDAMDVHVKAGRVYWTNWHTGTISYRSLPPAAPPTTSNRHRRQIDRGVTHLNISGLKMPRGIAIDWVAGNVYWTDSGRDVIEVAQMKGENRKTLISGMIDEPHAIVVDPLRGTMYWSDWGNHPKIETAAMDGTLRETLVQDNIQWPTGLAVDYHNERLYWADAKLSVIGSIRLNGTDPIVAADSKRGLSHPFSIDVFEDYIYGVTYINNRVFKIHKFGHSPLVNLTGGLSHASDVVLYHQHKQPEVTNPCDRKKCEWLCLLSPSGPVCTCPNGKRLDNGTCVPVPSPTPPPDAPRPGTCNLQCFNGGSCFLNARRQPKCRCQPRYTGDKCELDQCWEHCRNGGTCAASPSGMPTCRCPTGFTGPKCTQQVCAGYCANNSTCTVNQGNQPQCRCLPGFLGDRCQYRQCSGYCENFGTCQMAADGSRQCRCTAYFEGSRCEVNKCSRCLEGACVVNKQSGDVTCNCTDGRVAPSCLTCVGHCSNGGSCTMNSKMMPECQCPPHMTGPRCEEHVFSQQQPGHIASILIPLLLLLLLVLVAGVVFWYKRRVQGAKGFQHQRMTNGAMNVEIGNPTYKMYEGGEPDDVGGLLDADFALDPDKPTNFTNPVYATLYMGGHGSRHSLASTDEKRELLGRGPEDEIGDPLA

For the substance “receptor-associated protein (RAP) (from UniProt P30533 35-357) (ligand)”, the inhibition of uptake of K18 tau in WT H4 cells (IC50) came out at 9.6 nM and the inhibition of uptake of full-length tau in WT H4 cells (IC50) is 4.9 nM.
